Test results: paper PMC2173330 (The Journal of Cell Biology, 2002)

Biological target: T1, XSMC1 (Xenopus (endogenous in egg extracts), UniProt O93308 1-1232)
T1 sequence: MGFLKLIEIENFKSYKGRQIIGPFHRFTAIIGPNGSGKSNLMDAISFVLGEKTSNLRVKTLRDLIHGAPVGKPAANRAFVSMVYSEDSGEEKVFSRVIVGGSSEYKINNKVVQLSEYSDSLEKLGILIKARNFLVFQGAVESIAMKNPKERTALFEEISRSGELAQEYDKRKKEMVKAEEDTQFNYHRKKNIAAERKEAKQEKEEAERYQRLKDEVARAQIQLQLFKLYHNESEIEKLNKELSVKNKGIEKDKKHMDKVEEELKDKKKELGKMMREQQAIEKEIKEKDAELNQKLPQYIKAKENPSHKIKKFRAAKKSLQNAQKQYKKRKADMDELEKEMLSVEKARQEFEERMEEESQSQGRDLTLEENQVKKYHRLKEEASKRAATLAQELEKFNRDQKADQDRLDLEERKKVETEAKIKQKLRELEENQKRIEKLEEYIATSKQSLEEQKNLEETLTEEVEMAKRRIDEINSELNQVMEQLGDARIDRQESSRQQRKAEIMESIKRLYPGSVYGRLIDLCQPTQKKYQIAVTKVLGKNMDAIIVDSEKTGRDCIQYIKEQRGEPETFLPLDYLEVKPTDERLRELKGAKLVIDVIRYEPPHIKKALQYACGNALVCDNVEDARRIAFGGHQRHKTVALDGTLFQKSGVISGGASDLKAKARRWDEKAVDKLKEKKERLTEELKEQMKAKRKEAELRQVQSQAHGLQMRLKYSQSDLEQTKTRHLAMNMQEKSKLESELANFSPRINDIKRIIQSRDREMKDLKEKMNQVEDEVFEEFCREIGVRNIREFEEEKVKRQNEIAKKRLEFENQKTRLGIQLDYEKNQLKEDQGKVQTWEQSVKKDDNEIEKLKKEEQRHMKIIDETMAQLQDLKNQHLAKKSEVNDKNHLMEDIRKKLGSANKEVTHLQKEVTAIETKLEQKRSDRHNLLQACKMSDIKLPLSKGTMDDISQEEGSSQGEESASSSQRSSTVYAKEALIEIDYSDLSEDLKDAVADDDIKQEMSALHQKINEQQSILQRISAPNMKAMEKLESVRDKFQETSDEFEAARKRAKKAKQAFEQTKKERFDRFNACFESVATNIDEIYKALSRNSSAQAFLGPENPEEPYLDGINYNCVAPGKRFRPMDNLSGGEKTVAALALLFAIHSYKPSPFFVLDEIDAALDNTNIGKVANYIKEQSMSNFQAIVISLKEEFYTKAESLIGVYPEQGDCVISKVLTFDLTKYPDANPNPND
Assay: rotary-shadowing electron microscopy

B1: XSMC3 (natural protein)
chain: MYIKQVIIQGFRSYRDQTIVDPFSSKHNVIVGRNGSGKSNFFYAIQFVLSDEFSHLRPEQRLALLHEGTGPRVISAFVEIIFDNSDNRLPIDKEEVSLRRVIGAKKDQYFLDKKMVTKNDVMNLLESAGFSRSNPYYIVKQGKINQMATAPDSQRLKLLREVAGTRVYDERKEESISLMKETEGKRDKINELLKYIEERLHTLEEEKEELAQYQKWDKMRRALEYTIYNQELNETRAKLDELSSKRETSGEKSRQLRDAQQDARDKMEEIERQVRELKSKISAMKEEKEQLSSERQEQIKQRTKLELKTKDLQDELAGNSEQRKRLLKERQKLLEKIEEKQKELAETEPKFSSVKQKEESGIARLAQATQERTDLYAKQGRGSQFTSKEERDKWIKKELKSLDQAINDKKRQIAAINKDLEETEVNKEKNLEQYTKLDQDLNEVKTRVEELDKKYYEVKNKKDELQSERNYLWREENAEQQSLAAKREDLEKKQQLLRAATGKAILNGIDSINKVLEHFRRKGINQHVINGYHGIVMNNFDCEPAFYTCVEVTAGNRLFYHIVESDEVSTKILMEFNKMNLPGEVTFLPLNKLDVRDTAYPETNDAIPMISKLRYNLRFDKAFKHVFGKTLICRSMEVSTQLARAFTMDCITLEGDQVSHRGALTGGYYDTRKSRLELQKDVRKVEDELHALEAKLNENLRRNIERINNEIDQLMNQMQQIETQQRKFKASRDSILSEMKMLKEKRQQSEKTFMPKQRSLQSLEASLHAMESTRESLKAELGTDLLSQLSLEDQKRVDALNDEIRQLQQENRQLLNERIKLEGTITRVETYLNENLRKRLDQVEQELNELRETEGGTVLTATTSELEAINKRVKDTLARSEGLDITIDKTEVESKDLVKSMDRWKNMEKDHMDAINHDTKELEKMTNRQGMLLKKKEECMKKIRELGSLPQEAFEKYQTLSLKQLFRKLEQCNTELKKYSHVNKKALDQFVNFSEQKEKLIKRQEELDRGHKSIMELMNVLELRKYEAIQLTFKQVSKNFSEVFQKLVPGGKATLVMKKGDVEGSQSQDEGEGSTQSSVPSVDQFTGVGIRVSFTGKQAEMREMQQLSGGQKSLVALALIFAIQKCDPAPFYLFDEIDQALDAQHRKAVSDMIMELASHAQFITTTFRPELLESADKFYGVKFRNKVSHIDVITAEQAKDFVEDDTTHG
- binding result: binds
